Measurements reported in patent US11912777 (NANJING LEADS BIOLABS, dated 2024).

Experiments:
[1] = molecular target: T1, human TNFR2, mouse Fc-tag (human); assay: ELISA on coated human TNFR2-mFc, left panel; fit value of a flat control curve; unit from the axis [a]
T1 construct: also called hTNFR2-mFc; huTNFR2-mFc
T1 chain: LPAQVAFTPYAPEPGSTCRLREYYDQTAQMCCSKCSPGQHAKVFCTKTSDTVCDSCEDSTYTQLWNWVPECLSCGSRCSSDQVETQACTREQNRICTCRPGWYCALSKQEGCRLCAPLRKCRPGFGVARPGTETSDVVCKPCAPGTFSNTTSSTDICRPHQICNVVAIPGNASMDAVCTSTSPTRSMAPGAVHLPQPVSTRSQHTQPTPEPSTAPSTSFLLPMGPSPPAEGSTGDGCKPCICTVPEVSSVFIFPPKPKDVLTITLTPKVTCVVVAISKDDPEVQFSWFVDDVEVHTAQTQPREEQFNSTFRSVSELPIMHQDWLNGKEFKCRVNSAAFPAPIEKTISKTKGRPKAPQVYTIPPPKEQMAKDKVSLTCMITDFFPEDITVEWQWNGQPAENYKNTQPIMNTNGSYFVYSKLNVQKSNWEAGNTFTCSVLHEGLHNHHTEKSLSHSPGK

[2] = molecular target: T2, Human TNFR2, human Fc tag protein (human); assay: ELISA on coated huTNFR2-huFc, middle panel (with 43B7A4); fit value of a flat control curve; unit from the axis
T2 construct: also called huTNFR2-huFc; HuTNFR2-huFc

[3] = molecular target: T3, human TNFR2 expressed on activated PBMCs (human, UniProt P20333 23-461); assay: flow cytometry on activated human PBMCs
T3 construct: whole, on cells; Native receptor on primary cells
T3 sequence (looked up): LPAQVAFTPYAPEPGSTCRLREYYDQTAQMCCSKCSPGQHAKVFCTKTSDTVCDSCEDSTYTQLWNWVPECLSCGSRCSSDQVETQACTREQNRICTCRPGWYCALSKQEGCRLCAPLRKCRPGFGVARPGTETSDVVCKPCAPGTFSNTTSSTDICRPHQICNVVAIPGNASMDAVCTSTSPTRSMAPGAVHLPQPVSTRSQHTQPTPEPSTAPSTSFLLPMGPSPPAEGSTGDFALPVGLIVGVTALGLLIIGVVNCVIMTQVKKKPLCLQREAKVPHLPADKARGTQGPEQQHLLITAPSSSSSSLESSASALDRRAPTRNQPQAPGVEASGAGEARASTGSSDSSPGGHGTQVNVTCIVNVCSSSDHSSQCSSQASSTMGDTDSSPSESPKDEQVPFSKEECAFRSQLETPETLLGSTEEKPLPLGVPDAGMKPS

[4] = molecular target: T4, Cynomolgus TNFR2, human Fc tag protein (cynomolgus); assay: ELISA on coated cyno-TNFR2-huFc; bottom panel
T4 construct: also called cyno-TNFR2-huFc

[5] = molecular target: T1, human TNFR2, mouse Fc-tag; assay: ELISA on coated human TNFR2-mFc, left panel; fit value of a flat control curve; unit from the axis [b]
[6] = molecular target: T1, human TNFR2, mouse Fc-tag; assay: blocking ELISA: hTNFR2-mFc mixed with antibody, binding to coated TNF-alpha his tag; right panel; fit value of a flat control curve; unit from the axis [a]
[7] = molecular target: T2, Human TNFR2, human Fc tag protein; assay: ELISA on coated huTNFR2-huFc, top panel (with 32A1D5); fit value of a flat control curve; unit from the axis

B1: negative control IgG (antibody, V domains shown)
VH: QVQLVESGGGAVQPGRSLRLSCAASGFTFSSYGMHWVRQAPGKGLEWVAVILYDGSDKFYADSVKGRFTISRDNSKNTLYLQMNSLRAEDTAVYYCAKVAVAGTHFDYWGQGTLVTVSS
VL: DIQMTQSPSSLSASVGDRVTITCRASQGIRNDLGWYQQKPGKAPKLLIYAASSLQSGVPSRFSGSGSGTDFTLTISSLQPEDFATYYCQQLNSYPPTFGGGTKVEIKR
notes: also called IgG Control; IgG (Negative Control)
EC50 [1]: ~0.102 nM | EC50 [2]: 277 nM | binding result [3]: no binding | binding result [4]: no binding (tested: about 1 nM) | EC50 [5]: ~3.06 nM | IC50 [6]: ~2.06 nM | EC50 [7]: ~0.102 nM
